# Reference: the supplement of paper PMC9112550, “Optimization of the antimicrobial peptide Bac7 by deep mutational scanning” (BMC Biology, 2022)
# Tested on: Escherichia coli TOP10
# Experiment: shrunken log2 fold change of peptide-encoding DNA abundance (4.5 h post-induction vs induction); higher = less antimicrobial activity (less host growth inhibition)
# Details: time post-induction: 4.5 h; library: site-saturation at positions 5, 18, 19, 20
# 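Note: peptides expressed intracellularly from a pBAD plasmid library in pooled LB shake-flask culture, induced with 0.3% L-arabinose, DNA abundance read by NGS, three biological replicates, DESeq2 with apeglm shrinkage.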
row,Sequence,shrunken log2 fold change
1,RRIRYRPPRLPRPRPRPSQGPRP,-0.031
2,RRIRYRPPRLPRPRPRPSQSPRP,-0.804
3,RRIRYRPPRLPRPRPRPSRLPRP,-0.114
4,RRIRYRPPRLPRPRPRPSRWPRP,0.0398
5,RRIRYRPPRLPRPRPRPSSRPRP,-0.0331
6,RRIRYRPPRLPRPRPRPSVGPRP,-0.124
7,RRIRYRPPRLPRPRPRPSWQPRP,-0.526
8,RRIRYRPPRLPRPRPRPSYNPRP,-0.676
9,RRIRYRPPRLPRPRPRPSYPPRP,-0.217
10,RRIRYRPPRLPRPRPRPTAHPRP,-0.466
11,RRIRYRPPRLPRPRPRPTARPRP,-0.0799
12,RRIRYRPPRLPRPRPRPTCFPRP,-0.222
13,RRIRYRPPRLPRPRPRPTCMPRP,-0.156
14,RRIRYRPPRLPRPRPRPTDMPRP,0.00219
15,RRIRYRPPRLPRPRPRPTEGPRP,-0.96
16,RRIRYRPPRLPRPRPRPTHHPRP,-0.509
17,RRIRYRPPRLPRPRPRPTIIPRP,-0.669
18,RRIRYRPPRLPRPRPRPTINPRP,-1.41
19,RRIRYRPPRLPRPRPRPTIVPRP,-0.0265
20,RRIRYRPPRLPRPRPRPTKCPRP,-0.544
21,RRIRYRPPRLPRPRPRPTMHPRP,-0.484
22,RRIRYRPPRLPRPRPRPTMQPRP,-0.0804
23,RRIRYRPPRLPRPRPRPTNIPRP,-0.841
24,RRIRYRPPRLPRPRPRPTNWPRP,-0.185
25,RRIRYRPPRLPRPRPRPTPKPRP,0.167

row,Sequence,shrunken log2 fold change
1,RRIRYRPPRLPRPRPRPTPNPRP,0.507
2,RRIRYRPPRLPRPRPRPTQDPRP,0.542
3,RRIRYRPPRLPRPRPRPTQGPRP,0.0351
4,RRIRYRPPRLPRPRPRPTQIPRP,-0.292
5,RRIRYRPPRLPRPRPRPTRDPRP,-0.0311
6,RRIRYRPPRLPRPRPRPTRLPRP,0.262
7,RRIRYRPPRLPRPRPRPTRRPRP,0.358
8,RRIRYRPPRLPRPRPRPTTIPRP,-0.769
9,RRIRYRPPRLPRPRPRPTTNPRP,-0.837
10,RRIRYRPPRLPRPRPRPTVTPRP,-0.283
11,RRIRYRPPRLPRPRPRPTVVPRP,-0.477
12,RRIRYRPPRLPRPRPRPTWTPRP,0.0315
13,RRIRYRPPRLPRPRPRPTYGPRP,-0.196
14,RRIRYRPPRLPRPRPRPTYTPRP,-0.802
15,RRIRYRPPRLPRPRPRPTYYPRP,-1.21
16,RRIRYRPPRLPRPRPRPVAGPRP,-0.0147
17,RRIRYRPPRLPRPRPRPVCCPRP,-0.644
18,RRIRYRPPRLPRPRPRPVDEPRP,-0.554
19,RRIRYRPPRLPRPRPRPVELPRP,-0.151
20,RRIRYRPPRLPRPRPRPVEPPRP,-0.384
21,RRIRYRPPRLPRPRPRPVFTPRP,-0.574
22,RRIRYRPPRLPRPRPRPVFYPRP,-1.05
23,RRIRYRPPRLPRPRPRPVGDPRP,-0.0659
24,RRIRYRPPRLPRPRPRPVGRPRP,0.0286
25,RRIRYRPPRLPRPRPRPVHAPRP,-0.13

row,Sequence,shrunken log2 fold change
1,RRIRYRPPRLPRPRPRPVKEPRP,0.00241
2,RRIRYRPPRLPRPRPRPVLDPRP,-0.265
3,RRIRYRPPRLPRPRPRPVLQPRP,-0.297
4,RRIRYRPPRLPRPRPRPVMCPRP,-0.266
5,RRIRYRPPRLPRPRPRPVMHPRP,-0.338
6,RRIRYRPPRLPRPRPRPVNYPRP,-0.458
7,RRIRYRPPRLPRPRPRPVQPPRP,0.219
8,RRIRYRPPRLPRPRPRPVRLPRP,-0.0236
9,RRIRYRPPRLPRPRPRPVRTPRP,-0.137
10,RRIRYRPPRLPRPRPRPVSMPRP,-0.00201
11,RRIRYRPPRLPRPRPRPVSNPRP,-1.07
12,RRIRYRPPRLPRPRPRPVSRPRP,-0.0816
13,RRIRYRPPRLPRPRPRPVSYPRP,-0.00297
14,RRIRYRPPRLPRPRPRPVTTPRP,-0.209
15,RRIRYRPPRLPRPRPRPVVFPRP,-0.747
16,RRIRYRPPRLPRPRPRPVVHPRP,-0.00114
17,RRIRYRPPRLPRPRPRPVVNPRP,-0.683
18,RRIRYRPPRLPRPRPRPVWDPRP,-0.0448
19,RRIRYRPPRLPRPRPRPVWYPRP,-0.105
20,RRIRYRPPRLPRPRPRPWCEPRP,-0.468
21,RRIRYRPPRLPRPRPRPWCGPRP,-0.974
22,RRIRYRPPRLPRPRPRPWCHPRP,-0.191
23,RRIRYRPPRLPRPRPRPWEPPRP,-0.0182
24,RRIRYRPPRLPRPRPRPWFKPRP,-0.12
25,RRIRYRPPRLPRPRPRPWFMPRP,-0.356
